Positions count from the first letter of the chain named.
T1: cyno TREM-1 on cells (cynomolgus monkey, UniProt A0A2K5VHG8 21-233)
T1 sequence: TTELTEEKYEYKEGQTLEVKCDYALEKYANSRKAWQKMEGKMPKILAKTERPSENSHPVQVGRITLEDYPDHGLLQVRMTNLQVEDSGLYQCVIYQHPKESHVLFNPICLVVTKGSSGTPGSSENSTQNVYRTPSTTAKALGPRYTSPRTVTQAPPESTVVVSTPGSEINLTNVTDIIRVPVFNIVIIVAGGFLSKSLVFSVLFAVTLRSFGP

B1: 57C10 (antibody, V domains shown)
VH: QVQLVQSGAEVKKPGASVKVSCKASGYTFTRYDINWVRQATGQGLEWMGWLNPNSGNTGQTQKFRGRVTMTRNTSINTAYMELSSLRSEDTAVYYCARGGYTSAWRWYFDLWGRGTLVTVSS
VL: DIQMTQSPSSLSASVGDRVTITCQASQDINNHLNWYQQKPGKAPKLLIYDVSNLETGVPSSFSGSGCGTDFTFTISSLQPEDIATYFCQQYDKLPLTFGGGTKVEIEG
B2: 30H2 (antibody, V domains shown)
VH: EVQVLESGGGLVQPGESLRLSCTASGFTFNAYAMSWVRQAPGKGLEWVSTISGSGSTTYYADSVKGRFTISRDNSKNTLDLQMNSLRAADTAVYYCAKVAGSNFFFDHWGQGTLVTVSS
VL: EIVMTQSPATLSVSPGERATLSCRASQSINSNLAWYQQKPGQAPRLLIYGAYTRATGIPDRFSGSGSGTEFTLTISSLQSEDFAVYYCQEFIMWPPWTFGLGTQVEIKR
B3: 61B12 (antibody, V domains shown)
VH: QVQLVQSGAEVTKPGASVKVSCKASGYTFTRYDINWVRQATGQGLEWMGWMNPNSGNSGSVQKFRGRVTMTRNTSITTVYMELSSLRSDDTAVYYCARGGISSSWHWAFDIWGQGTMVTVSS
VL: B1 VL with D50G, V51A, S52Y, N53T, S61R, C67S, F87Y, E107K, G108R
B4: 61G5 (antibody, V domains shown)
VH: QVQLVQSGAEVKKPGASVKVSCKASGYTFTSYDINWVRQATGQGLEWMGWMNPNSGNSGSVKKFRDRVTMTRNTSISTAYMELSSLRSEDTAVYYCVRLIGYSSAWKWSFQHWGQGTLVTVSS
VL: DIQMTQSPSSLSASVGDRVTITCQASRDISKYLNWYQQKPGKAPKLQIYDASNLETGVPSRFSGSGSGTDFTFTISSLQPEDIATYYCQHYDNIPITFGQGTRLEIKR
B5: 63F8 (antibody, V domains shown)
VH: QVQLVQSGAEVKKPGASVKVSCKASGYTFTSYDINWVRQATGQGLEWMGRMNPKSGNAGYVQNFRGRVTMTRNTSISTAYMELSSLRSEDTAVYYCARGGRTSIWSFVFDYWGQGTLVTVSS
VL: B1 VL with N30S, N31K, V51T, S61R, C67S, F87N, E107K, G108R
B6: 64D7 (antibody, V domains shown)
VH: QVQLVQSGAEVKKPGASVKVSCKASGYTFTSYDINWVRQATGQGLEWMGWMNPNRGNTGYVKKFQGRVTMTRNTSISTAYMELSSLRSEDTAVYYCARRRAVYRSSWEWYFDLWGRGTLVTVSS
VL: DTQMTQSPSSLSASEGDRVTITCQASQDIFNDLNWYQEKPGKAPKLLIYHASNLETGVPSRFSGSGSGTDYTFTISSLQPEDIATYYCQQYGNLPLTFGGGTKVEIKR
B7: 44A5 (antibody, V domains shown)
VH: EVQLLESGGGLVQPGGSLRLSCAASGFTFSTYAMNWVRQAPGKGLEWVSTVSGSGRPTYYADSVKGRFTISRDNSKNTLYLQMNSLRAEDTAVYYCAKAYYSNYLFDYWGQGTLVTVSS
VL: EIVMTQSPAILSVSPGERATLSCRASQSVSSNLAWYQQKPGQAPRLLIYGASTRATGVPARFSGGGSGTDFTLTISSLQSEDFAVYYCQHCKTWPPLTFGGGTKVDLKR
B8: 46H7 (antibody, V domains shown)
VH: EVQLLESGGGMVQPGGSLRLSCAVSGFTFSRYAMSWVRQAPGKGLEWVSEMRGSSGSTYYADSVKGRFTISRDNSKNTLYLQMNSLRVEDTAIYYCAKEFSSNSLFDYWGQGTLVTVSS
VL: B2 VL with I29V, Q42R, Y52S, D60A, E90Q, I92Y, M93N, L101Q, Q104K
B9: 49A2 (antibody, V domains shown)
VH: EVQLVESGGGLVQPGGSLRLSCAASGFTFSSNWMSWVRQAPGKGLDWMASMKQDGSEIYYVDSVKGRFTISRDNAKNSLHLQMNSLRAEDTAVYYCVRGGWRFESWGQGALVTVSS
VL: EIVMTQSPATLSVSPGERATLSCRASQSVSSNLAWYQQKSGQAPRLLIYGASIRATGIPARVSGSGSGTEFTFTISSLQSEDFAVYYCQQYKNWPLTLGGGTKVEIKR
B10: 66B8 (antibody, V domains shown)
VH: QVQLVQSGAEVKKPGASVKVSCKASGYTFTGYYMHWVRQAPGQGLEWMGWFKPNSGVTNYAQKFQGRVTMSRDTSISTAYMELSSLRSDDTAVYYCARAGYSTSWKDWFDPWGQGTLVTVSS
VL: DIQMTQFPSSVSASVGDRVTITCRASQGISRWLAWYQQKQGKAPKLLIYMVSSLQSGVPSRFSGSGSGTDFTLTISSLQPEDFATYYCQQSHNFPITFGQGTRLDIKR
B11: 50A12 (antibody, V domains shown)
VH: EVQLVESGGGLVQPGGSLRLSCAASGFTFSSYWMSWVRQAPGKGLEWVANIKQDGSEEYYVDSVKGRFTISRDNAKNSLFLQMNSLRAEDTAVYYCARDYGDSFDYWGQGTLVTVSS
VL: DIQMTQSPSSVSASVGDRVTITCRASQGIRKWLAWYQQKPGRAPKLLIYAASRLQSGVPSRFSGSGSGTDFTLTISSLRPEDFATYYCLQAHGFPWTFGQGTKVEIKR

molecular target: T1, cyno TREM-1 on cells; test: cell-based or functional assay

Binder | Ab IC50-Cyno PBMC (Trial 1), TNFα release after cyno PGLYRP1/PGN [nM] | Ab IC50-Cyno PBMC (Trial 2), TNFα release after cyno PGLYRP1/PGN [nM]
B1 | 0.154 | 0.0284
B2 | 3.77 | 
B3 | 0.0469 | 0.0174
B4 |  | 2.34
B5 | 0.0226 | 0.0161
B6 | 6.94 | 0.78
B7 | 0.0579 | 0.0091
B8 | 0.0951 | 0.0097
B9 | 0.732 | 0.266
B10 | 0.114 | 0.0232
B11 | 2 | 
